T1: KIAA 0696 (βTrCP2), human βTrCP protein isolated by ISHIKAWA et al. (human, UniProt Q9UKB1 1-542, limits assumed)
T1 construct: Two-hybrid hybrid; also called βTCP2; KIA 696
T1 sequence (looked up): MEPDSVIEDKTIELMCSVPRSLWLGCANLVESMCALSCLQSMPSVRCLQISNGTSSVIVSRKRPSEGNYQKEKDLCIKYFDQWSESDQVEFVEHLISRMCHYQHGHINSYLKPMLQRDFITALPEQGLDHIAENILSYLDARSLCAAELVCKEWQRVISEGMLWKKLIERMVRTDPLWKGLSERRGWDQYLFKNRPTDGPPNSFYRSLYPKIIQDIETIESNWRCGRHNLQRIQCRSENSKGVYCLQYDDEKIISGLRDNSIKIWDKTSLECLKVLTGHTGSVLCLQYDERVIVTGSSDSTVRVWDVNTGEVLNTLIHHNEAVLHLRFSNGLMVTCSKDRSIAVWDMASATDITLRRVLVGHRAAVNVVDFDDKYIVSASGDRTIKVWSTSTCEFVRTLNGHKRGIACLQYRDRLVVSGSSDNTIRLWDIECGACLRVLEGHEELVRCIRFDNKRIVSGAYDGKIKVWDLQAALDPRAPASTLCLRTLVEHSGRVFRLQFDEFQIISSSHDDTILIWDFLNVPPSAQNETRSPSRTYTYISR

T2: βCat (whole normal β-catenin protein) (UniProt P35222 1-781)
T2 construct: Two-hybrid hybrid; also called whole β-catenin protein
T2 sequence (looked up): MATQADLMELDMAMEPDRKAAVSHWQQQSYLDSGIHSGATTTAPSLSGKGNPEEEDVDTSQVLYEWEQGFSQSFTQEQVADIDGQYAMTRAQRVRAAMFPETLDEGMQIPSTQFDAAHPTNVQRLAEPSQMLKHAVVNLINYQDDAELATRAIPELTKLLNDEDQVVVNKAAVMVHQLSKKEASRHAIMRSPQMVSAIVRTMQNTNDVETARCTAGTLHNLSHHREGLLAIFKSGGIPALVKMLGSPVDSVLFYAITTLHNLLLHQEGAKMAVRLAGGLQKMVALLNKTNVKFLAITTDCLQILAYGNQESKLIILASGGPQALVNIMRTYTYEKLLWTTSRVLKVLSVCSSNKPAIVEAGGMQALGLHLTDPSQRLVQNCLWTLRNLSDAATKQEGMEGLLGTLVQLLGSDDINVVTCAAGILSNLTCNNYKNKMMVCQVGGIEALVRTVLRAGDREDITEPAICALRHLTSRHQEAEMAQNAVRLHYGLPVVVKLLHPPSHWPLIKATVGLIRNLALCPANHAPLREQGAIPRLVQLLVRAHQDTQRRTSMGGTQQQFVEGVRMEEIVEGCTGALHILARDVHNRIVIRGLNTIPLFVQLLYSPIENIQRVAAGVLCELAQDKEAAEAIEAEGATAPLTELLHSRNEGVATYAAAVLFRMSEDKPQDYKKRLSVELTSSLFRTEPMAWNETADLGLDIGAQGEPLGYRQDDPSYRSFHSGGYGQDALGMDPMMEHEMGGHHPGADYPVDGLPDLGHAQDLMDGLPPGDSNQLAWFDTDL

B1: βCat1→130 S33-37AA (oncogenic β-catenin protein mutated on serine residues S33 and S37 so that there is no phosphorylation) (other, UniProt P35222 1-130, looked up)
chain: MATQADLMELDMAMEPDRKAAVSHWQQQSYLDAGIHAGATTTAPSLSGKGNPEEEDVDTSQVLYEWEQGFSQSFTQEQVADIDGQYAMTRAQRVRAAMFPETLDEGMQIPSTQFDAAHPTNVQRLAEPSQ
notes: range 1-130; also called mutated β-catenin
B2: human βTrCP protein (h-βTrCP) (other)
chain: MDPAEAVLQEKALKFMNSSEREDCNNGEPPRKIIPEKNSLRQTYNSCARLCLNQETVCLASTAMKTENCVAKTKLANGTSSMIVPKQRKLSASYEKEKELCVKYFEQWSESDQVEFVEHLISQMCHYQHGHINSYLKPMLQRDFITALPARGLDHIAENILSYLDAKSLCAAELVCKEWYRVTSDGMLWKKLIERMVRTDSLWRGLAERRGWGQYLFKNKPPDGNAPPNSFYRALYPKIIQDIETIESNWRCGRHSLQRIHCRSETSKGVYCLQYDDQKIVSGLRDNTIKIWDKNTLECKRILTGHTGSVLCLQYDERVIITGSSDSTVRVWDVNTGEMLNTLIHHCEAVLHLRFNNGMMVTCSKDRSIAVWDMASPTDITLRRVLVGHRAAVNVVDFDDKYIVSASGDRTIKVWNTSTCEFVRTLNGHKRGIACLQYRDRLVVSGSSDNTIRLWDIECGACLRVLEGHEELVRCIRFDNKRIVSGAYDGKIKVWDLVAALDPRAPAGTLCLRTLVEHSGRVFRLQFDEFQIVSSSHDDTILIWDFLNDPAAQAEPPRSPSRTYTYISR
notes: 569 amino acids; also called whole h-βTrCP protein
B3: IκBα S32-36A (IκBα mutant at serines S32 and S36 so that there is no phosphorylation) (other, UniProt P25963 1-317, looked up)
chain: MFQAAERPQEWAMEGPRDGLKKERLLDDRHDAGLDAMKDEEYEQMVKELQEIRLEPQEVPRGSEPWKQQLTEDGDSFLHLAIIHEEKALTMEVIRQVKGDLAFLNFQNNLQQTPLHLAVITNQPEIAEALLGAGCDPELRDFRGNTPLHLACEQGCLASVGVLTQSCTTPHLHSILKATNYNGHTCLHLASIHGYLGIVELLVSLGADVNAQEPCNGRTALHLAVDLQNPDLVSLLLKCGADVNRVTYQGYSPYQLTWGRPSTRIQQQLGQLTLENLQMLPESEDEESYDTESEFTEFTEDELPYDDCVFGGQRLTL
notes: Two-hybrid hybrid; also called IκBα S32-36AA
B4: cytoplasmic region of CD4 (CD4c) (receptor, UniProt P01730 419-458, looked up)
chain: CVRCRHRRRQAERMSQIKRLLSEKKTCQCPHRFQKTCSPI
notes: domain: cytoplasmic region; Two-hybrid fusion; also called CD4 cytoplasmic domain

How the values were obtained:
[1] = target: endogenous IκBα protein of 293 or Hela cells, phosphorylated form (human) (UniProt P25963); test: cell-based or functional assay
[2] = target: B2; test: yeast two-hybrid
[3] = target: T1, KIAA 0696 (βTrCP2), human βTrCP protein …; test: yeast two-hybrid
[4] = target: T2, βCat (whole normal β-catenin protein); test: yeast two-hybrid, FIG. 10
human Skp1p protein = human Skp1p protein (human, UniProt P63208 1-163); test: yeast two-hybrid (strain L40)
Sequence of human Skp1p protein (P63208 whole entry): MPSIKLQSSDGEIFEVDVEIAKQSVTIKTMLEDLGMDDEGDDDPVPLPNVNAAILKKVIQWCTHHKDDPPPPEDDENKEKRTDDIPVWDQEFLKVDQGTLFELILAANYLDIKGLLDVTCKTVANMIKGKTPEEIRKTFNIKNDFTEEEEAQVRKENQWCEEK

[5] = target: B2; test: yeast two-hybrid (His3 and LacZ reporters)

**Q.** With “h-βTrCPΔF fragment (deleted residues: 32 to 179) (from UniProt Q9Y297 1-605)” as the molecule, how does the fold decrease in transcription activation induced by TNFα (NFκB-dependent luciferase reporter, FIG. 7) [1] read?
**A.** 20 fold

**Q.** Does B1 bind [2]?
**A.** no binding

**Q.** Does B1 bind [3]?
**A.** no binding

**Q.** Does B2 bind [4]?
**A.** binds

**Q.** Does B3 bind [2]?
**A.** no binding

**Q.** Does B4 bind (human Skp1p protein)?
**A.** no binding

**Q.** Does B4 bind [5]?
**A.** no binding
